We go through 2 molecules from publication PMC10759339, “Expression of NELL2/NICOL-ROS1 lumicrine signaling-related molecules in the human male reproductive tract” (Reproductive Biology and Endocrinology : RB&E, 2024).

A word on the Kd: it is the constant that tells how readily two partners part at equilibrium. By koff is commonly meant the rate constant with which the complex falls apart. What is called kon is the rate constant with which the complex forms.

The target of assay [1] is NICOL (Mus musculus) (UniProt Q3UR78). Particulars: cited from earlier work.
NICOL (Mus musculus), sequence (Q3UR78 29-90): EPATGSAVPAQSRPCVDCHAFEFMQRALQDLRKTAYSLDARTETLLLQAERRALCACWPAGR
Assay [2] deals with T1, C-terminally 6×His-tagged recombinant human NELL2 protein (human, UniProt Q99435 22-816).
T1 construct: Neural EGF-like like 2 (NELL2), human; also called Neural EGF-like like 2
T1 sequence (looked up): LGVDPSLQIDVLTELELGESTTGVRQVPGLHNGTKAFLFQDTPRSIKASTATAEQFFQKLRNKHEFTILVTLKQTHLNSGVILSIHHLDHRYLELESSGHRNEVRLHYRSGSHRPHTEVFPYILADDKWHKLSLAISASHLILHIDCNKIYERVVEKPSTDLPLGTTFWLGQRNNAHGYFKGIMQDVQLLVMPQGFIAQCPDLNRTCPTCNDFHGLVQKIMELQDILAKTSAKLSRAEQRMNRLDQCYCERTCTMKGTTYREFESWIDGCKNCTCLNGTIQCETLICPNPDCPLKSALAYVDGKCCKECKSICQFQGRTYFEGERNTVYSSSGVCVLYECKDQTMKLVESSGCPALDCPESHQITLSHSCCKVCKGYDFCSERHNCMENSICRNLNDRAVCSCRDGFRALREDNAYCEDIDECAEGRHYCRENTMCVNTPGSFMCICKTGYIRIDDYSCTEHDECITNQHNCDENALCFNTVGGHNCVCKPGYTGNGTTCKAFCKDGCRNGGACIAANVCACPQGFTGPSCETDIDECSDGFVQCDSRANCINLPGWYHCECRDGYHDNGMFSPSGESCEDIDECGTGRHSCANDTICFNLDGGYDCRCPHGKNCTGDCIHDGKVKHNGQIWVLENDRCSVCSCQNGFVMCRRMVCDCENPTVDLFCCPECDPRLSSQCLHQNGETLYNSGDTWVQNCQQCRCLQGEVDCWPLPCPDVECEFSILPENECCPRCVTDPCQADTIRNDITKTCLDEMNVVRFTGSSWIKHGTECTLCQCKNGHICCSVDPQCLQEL
Put plainly: SPR; purified human NELL2 immobilised on a series S sensor chip CM5 as ligand; purified human NICOL in PBS as analyte at increasing concentration; Biacore T200. The following applies: both partners purified. In general terms: In SPR one partner is held on a chip, and binding of the other changes the refractive index at the surface.

Turning to NELL2 (from UniProt Q61220), the Kd in assay [1] is 87 nM.

B1: C-terminally 6×His-tagged human NICOL protein (ligand, UniProt Q5BLP8 35-95, looked up)
chain: EPAGSAVPAQSRPCVDCHAFEFMQRALQDLRKTACSLDARTETLLLQAERRALCACWPAGH
notes: also called C4orf48
On to B1, for which, in assay [2], the Kd is 110 nM, the koff came to 0.00098 s⁻¹ and the kon turned out to be 9100 M⁻¹ s⁻¹.
